The text below walks through data of PMC8280513, “Marmoset glutathione transferases with ketosteroid isomerase activity” (Biochemistry and Biophysics Reports, 2021).

As usually defined, the Km is the concentration of substrate that gives half-maximal velocity. By kcat is commonly meant the number of substrate molecules converted per active site and unit of time at saturation. As a reminder, the kcat/Km is the second-order rate constant that governs catalysis at low substrate concentration.

One series has as its target T1, CjaGST A1-1 (Callithrix jacchus, UniProt A0A7G0XAM3).
T1 construct: gene GSTA1; 222 amino acid residues, N-terminal hexahistidine tag
T1 sequence (A0A7G0XAM3 1-222): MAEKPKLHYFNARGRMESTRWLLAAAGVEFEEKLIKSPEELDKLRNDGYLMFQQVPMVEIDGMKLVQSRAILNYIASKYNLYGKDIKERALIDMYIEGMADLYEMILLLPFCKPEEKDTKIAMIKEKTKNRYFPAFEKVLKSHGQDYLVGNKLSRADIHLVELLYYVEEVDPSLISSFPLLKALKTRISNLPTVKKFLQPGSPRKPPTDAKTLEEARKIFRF
As to the kind of experiment: specific activity, spectrophotometric assay. Format: biochemical.

Substrate in the series “purified protein”: [H][C@@]12CC=C3CC(=O)CC[C@]3(C)[C@@]1([H])CC[C@]1(C)C(=O)CC[C@@]21[H]
As to the kind of experiment: purified protein. The settings on record: glutathione H-site; Phe111 suggested to hinder steroid binding.

At CjaGST A1-1, `S=C=NCCc1ccccc1` [PEITC, phenethyl isothiocyanate] yielded a specific activity of 8.80 ± 1.95 µmol/min/mg.
At CjaGST A1-1, `O=[N+]([O-])c1ccc(Cl)c([N+](=O)[O-])c1` [CDNB, 1-chloro-2,4-dinitrobenzene] returned a specific activity of 26.1 ± 0.59 µmol/min/mg.

B1: CjaGST A1-1 (Callithrix jacchus) (protein)
chain: T1 sequence (A0A7G0XAM3 1-222)
Turning to B1, in “purified protein”, the Km amounted to 303 ± 34 µM, the turnover number (kcat) is 6.89 ± 0.79 s⁻¹ and the kcat/Km is 22700 M⁻¹ s⁻¹.
